Reference: paper PMC4063181 (Journal of the American Chemical Society, 2014)
Numbering of substitutions follows the chain as printed. Numbers in names are those of the source.

B1: EmrE S107C mutant devoid of wild-type Cys residues (C39S, C41S, C95S, S107C) (natural protein)
chain: MNPYIYLGGAILAEVIGTTLMKFSEGFTRLWPSVGTIISYSASFWLLAQTLAYIPTGIAYAIWSGVGIVLISLLSWGFFGQRLDLPAIIGMMLISAGVLIINLLSRCTPH
B2: EmrE (wild type) (natural protein)
chain: B1 chain with S39C, S41C, S95C, C107S

Experiments:
cross-linking = molecular target: the molecule itself; test: cross-linking
solution NMR = molecular target: the molecule itself; test: solution NMR

Row | Protein | stoichiometry N (cross-linking) | binding result (solution NMR)
1 | B1 | 2 | 
2 | B2 |  | binds
